According to patent US20090226428A1 (CEPHALON AUSTRALIA, published 2009):
Substitutions are numbered along the chain they refer to. Blank lines part the entries; values can stand above or below the binder they belong to.

Legend:
human TNF-α [1] = biological target: T1, human TNF-α (human, UniProt P01375 77-233); assay: cell-based or functional assay
human TNF-α [2] = biological target: T1, human TNF-α; assay: receptor binding assay (ELISA): dAb mixed with TNF (10 ng/ml), binding of TNF to captured TNF receptor 1 Fc fusion protein detected; blocked partner TNF receptor 1-Fc
Protocol: dAbs diversified in the 14 selected positions were tested for the ability to inhibit the binding of TNF to recombinant TNF receptor 1 (p55). Briefly, Maxisorp plates were incubated overnight with […] anti-human Fc mouse monoclonal antibody (Zymed, San Francisco, USA). The wells were washed with phosphate buffered saline (PBS) containing 0.05% Tween-20 and then blocked with 1% BSA in PBS before being incubated with 100 ng/ml TNF receptor 1 Fc fusion protein (R&D Systems, Minneapolis, USA). Each dAb was mixed with TNF which was added to the washed wells at a final concentration of 10 ng/ml. TNF binding was detected with 0.2 mg/ml biotinylated anti-TNF antibody (HyCult biotechnology, Uben, Netherlands) followed by 1 in 500 dilution of horse radish peroxidase labelled streptavidin (Amersham Biosciences, UK) and then incubation with TMB substrate (KPL, Gaithersburg, USA). The reaction was stopped by the addition of HCl and the absorbance was read at 450 nm. Anti-TNF dAb activity lead to a decrease in TNF binding and therefore a decrease in absorbance compared with the TNF only control (FIG. 5).

T1 sequence (P01375 77-233 limits assumed): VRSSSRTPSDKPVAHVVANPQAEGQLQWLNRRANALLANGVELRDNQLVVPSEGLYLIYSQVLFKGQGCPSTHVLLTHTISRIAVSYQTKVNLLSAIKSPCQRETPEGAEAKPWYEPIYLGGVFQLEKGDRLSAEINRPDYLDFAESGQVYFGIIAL

B1: Compound 100 (other)
VL: DIQMTQSPSSLSASVGDRVTITCRASQSIDSYLHWYQQKPGKAPKLLIYSASNLETGVPSRFSGSGSGTDFTLTISSLLPEDFATYYCQQVVWRPFTFGQGTKVEIKR
- EC50 (read off the curve); L929 cytotoxicity assay, cell viability (% control) (human TNF-α [1]): ~0.05 µM

B2: Compound 123 (other)
VL: B1 VL with S28A, L79Q
- EC50 (read off the curve); L929 cytotoxicity assay, cell viability (% control) (human TNF-α [1]): ~0.05 µM

Next, values leading:

- IC50 (read off the curve) (human TNF-α [2]): ~0.03 µM
B3: Compound 145 (marmoset CDR-grafted dAb) (other)
VL: B1 VL with L79Q
notes: also called parent dAb

- IC50 (read off the curve) (human TNF-α [2]): ~0.03 µM
B4: Acceptor dAb (Compound 128) (other)
VL: B1 VL with N53E, E55Q, T56S, L79Q
notes: also called acceptor variable region (anti-TNF domain antibody)
